# A protein production outcome set (Wang et al. 2014)
# Assay: label from the status in PepcDB records
row,Sequence,protein production
1,MRMKRFLTIVQILLVVIIIIFGYKIVQTYIEDKQERANYEKLQQKFQMLMSKHQEHVRPQFESLEKINKDIVGWIKLSGTSLNYPVLQGKTNHDYLNLDFEREHRRKGSIFMDFRNELKNLNHNTILYGHHVGDNTMFDVLEDYLKQSFYEKHKIIEFDNKYGKYQLQVFSAYKTTTKDNYIRTDFENDQDYQQFLDETKRKSVINSDVNVTVKDKIMTLSTCEDAYSETTKRIVVVAKIIKVS,not failed
2,MRMQRQGCVQAQIAGQSGMLTYWDNRRDMPMIASHRWTALFVLVILMPLPAFAGTPEGGYRQPPEPLLSVMRAPLNPSPRPDPTGRTLLLVQRTQYPPIARVAEPYLKLAGVRVEPRTHSRHDMSNGYGIRSCLEGFSLVDIASGKQTAVSLPAGACPALPVWSPDGRRFAFNNTAADHVELWVGDVATGQVRKIDGVQLNPVLGGEIQWLGGSSTLLLKTVPQDLGPAPRKAAVPPGPEVKETIQGKGESSTYEARDTLSSPQDEALFTYYATAQLLTVDAATGSQRKLGTPAVYSNVDGAPDGRHVLVERLKPPYSYVTTYARFAHDVAVLDLETGNERVLANLPVADRVPVQGVPTGPRAYAWRANQPATLVWAEALDGGDWKTSVPARDTLMTLAAPFTAKPRALARVQQRYAGLSWFAEGGQALLDEYDENRHWRRTTLVDADRPGAGERVLFDLSTDDLYADPGLPEMRVLANGQAVLREAQGALFLSGQGASPAGDRPFLDRYTLATGKSQRLFRSDAHVDEVFFGFAGDETSRLLTWHQSLTDPPNVYVRTLGEPLPAPAAGEAAFASTATPVTHFADPTPLVRQIKKRLVSYKRKDGVDLSFTLYTPPGYKEGTRVPAILYAYPLDYADPSKAGQVSGASERDFTRLNYYQLLLLAGYAIIDDAAFPIVGDPKTAYDTYLQQLVDDATAAVDKAVELGVVDRQRIGVTGHSHGALMTANLLAHTDLFRAGAATSGSYNKTLTPFGFQSERRSFWKAPDVYAQASAFFHADKINEPLLIVHGMDDANPGTETTQAPRLFQAIRGNGGTARLVLLPFEPHWYSARESNEDLVAEMLEWFDRYVKNAPPRDAQHANDVR,failed
3,MRMVAHRFLRPQEAHMQVLVRDNNVDQALRILKKKLQREGVFREMRLREAFEKPSIKKAREKAEAIGRQRKLARKQMQREGLLPTKPRKDKLEHHHHHH,failed
4,MRNKDLEPHSFELWLNAAKTNLDKYEMALIITATLGLRRGEVMGLRNESIKISHDQINDADVAQISIDMQRNTNELNGGPLKTKSSYRTIWAFGKTVDHLKYAMITADNLRQRNNIQAEKHWLWLNNDGNPLHPTHLNRLMRRVSNRSGVEVYPHLLRHYFATQAIAANKPQIDVMHYLGHKNLQMTADYTRSTKAASLNVFNSIDKFLLEHHHHHH,failed
5,MRNKNMSTIYQTSATASAGRNGVVSTEDKLLELNLSYPKEMGGSGTATNPEQLFAVGYAACFSNAILHVAREAKVALKEAPVTATVGIGPNGQGGFALSVALAAHIALEDEQARQLVTVAHQVCPYSNAVRGNIDVQVSVNGLAL,not failed
6,MRNLKELKWSDLKTGIFFLLGLGFAAYLGLVIGKNTSIFTGVTTIKVMTRDVNGLAENNFVSVAGKKIGTVSKLDFSTQNDSLFVVAELKLQNEYANLVTKDSKASIRSLGVLGDKYVDIKAGTGKPVKEGDFIQLVPEDGLSALTDNAKSTIEKLNTLLDKLNNGDGPAGRLISDKQMGEDLQKTVMNLRKSSDELTRVSAELHNGKGLLPKLINDKSLADNTEQTIVNLKNAAAETETLMKQLNEGKGTLGKLNSDPALYNNLSKTLISLDTLLIDLKKRPNRYVRFTLF,failed
7,MRNLKLRYCKELNAVAHPQHLLLQPELNGGASDIYFVVADNKIYAVQESGDVRLKVIADLPDIVGVEFLQLDNAICVASGAGEVILVDPQTGATSEGTFCDVGIESMAWSPNQEVVAFVTRTHNVVLMTSTFDVIAEQPLDAELDPDQQFVNVGWGKKETQFHGSEGKQAAKQKESDSTFIRDEQELNQDVSISWRGDGEFFVVSYVAAQLGRTFKVYDSEGKLNHTAEKSANLKDSVVWRPTGNWIAVPQQFPNKSTIALFEKNGLRHRELVLPFDLQEEPVVQLRWSEDSDILAIRTCAKEEQRVYLYTIGNYHWYLKQVLIFEQADPLALLHWDTRCGAEHTLHVLKESGKHLVYRWAFAVDRNNSIVGVIDGKRLLLTDFDEAIVPPPMSKIVLKFETYINAFISHGTSLWVYTCDRKIYLNEHIHTLGKELQKPIMLMPDAELSGLHLANLTHFSPHYLLATHSSAGSTRLLLLSYKDNDNKPGEWFYRVHSSVRINGLVNAVAVAPYAMNEFYVQTVNNGHTYEVSLKADKTLKVERSYVQLHEPADQIDWVIVKGCIWDGYTGALVTLRNQHLLHIDGYRIGEDVTSFCVVTNYLVYTQLNAMHFVQLDDRRQVASRNIERGAKIVTAVARKARVVLQLPRGNLEAICPRVLVLELVGDLLERGKYQKAIEMSRKQRINLNIIFDHDVKRFVSSVGAFLNDINEPQWLCLFLSELQNEDFTKGMYSSNYDASKQTYPSDYRVDQKVEYVCRLLEQQMNRFVSRFRLPLITAYVKLGCLEMALQVIWKEQQEDASLADQLLQHLLYLVDVNDLYNVALGTYDFGLVLFVAQKSQKDPKEFLPYLNDLKALPIDYRKFRIDDHLKRYTSALSHLAACGEQHYEEALEYIRKHGLYTDGLAFYREHIEFQKNIYVAYADHLRAIAKLDNASLMYERGGQLQQALLSAKHTLDWQRVLVLAKKLSEPLDQVAQSLVGPLQQQGRHMEAYELVKEHCQDRKRQFDVLLEGHLYSRAIYEAGLEDDDVSEKIAPALLAYGVQLESSLQADLQLFLDYKQRLLDIRRNQAKSGEGYIDTDVNLKEVDLLSDTTSLHSSQYSGTSRRTGKTFRSSKNRRKHERKLFSLKPGNPFEDIALIDALHNHVTKIAQQQQPVRDTCKALLQLANAADADPLAAALQREFKTLLQAVDAALDEIWTPELRGNGLMADHLTGPNVDYLALQKEQRYALLSPLKRFKPQLIMMDWQHEILQ,failed
8,MRNLSRRIQSHQIRLRPPPFGAKRPVRRSESTSPPPRRRLIVGKRNRSAQVQYSMSHGLTHLSFWPLLFATLALTHVTIVSVTIFLHRHQAHRALSLHPLASHFFRFWLWLTTATVTKEWVSIHRKHHARCETPDDPHSPQCLGIFTVLLRGWMLYRKEARNTATLAQFGNGTPDDWLERKLYSRFPDLGITLMLALNLLLFGIGGLGVWAVQMLWIPFWAAGVVNGLGHHLGYRNFETPDASTNLWPIGFIIGGEELHNNHHAYPASAKFSSRRWEIDIGWLYIRLMTLLKLAKIRNMPPKTIIHTAEPSVDMDTVKAVLRNRAHVLSLYGRRVIVPVLRSEQAKSPKAGRRLLRQTRPLLLREYIKADPAAWHNFSRMLEDSQTLATIFQFKQQLKAVWTDSFTSHEERLERLRAWCLQAKQSDLPWLQHFADTLSGYRLQPAH,failed
9,MRNPFERMPTVLTADELIDKAFRRAEKAASSFKPRGNKVKKARLREELRVRTVSNVVRDNLRKVLERTPGLSTLPKFYQELVDVLVDRDTFHKAMAGIDWAIRIIRELEERYVERIRYSNDPNEIAELRRQFYGRVASVLRDIDDRLRYLNKAREVLKDLPVVDLEIPTVVIAGHPNVGKSTLLKALTTAKPEIASYPFTTRGINVGQFEDGYFRYQIIDTPGLLDRPISERNEIEKQAILALRYLGNLIIYIFDPSEHCGFPLEEQIHLFEEVHGEFKDLPFLVVINKIDVADEENIKRLEKFVKEKGLNPIKISALKGTGIDLVKEEIIKTLRPLAEKVAREKIERELRRYRSYLLEHHHHHH,failed
10,MRNTDDYIIFYHLVEQGSFSSAARHMELTKSVVSKRIAKLEQELGVQLLYRTTRTLTLTEAGQSFFVHAKAVYKAVATAEESIVGLGKNLSGNIKITVPTISGELILPGVISEFNDKYPDINIDMELDNRFVDIVNERFDLAIRTGMLPDSSLIARKLVDANWVVCASPKYLAKHGIPKQPIELTKHNCLVYSYQETGAREWAFKAGDKMYQVTVDGNLCTNNSSALRNVALLGQGVIYVPRVLVYEDLKQGSLIQLFKEETAKCLGIYAVYPYTRQQPEKIKIFIDHLYNSFQSQNHRF,failed
11,MRNTILFGVSMILLANLCFGIMSAFVKITADYFSPMENVFYRSITMTLLLLLIYPFKPYRLKSYKQGGFKKLAFRVVVGGLAMLAFFYNIEKISLATATAFSQCAPIYTVLLSPLLLKEKLKRSTLISACIGIVGVVLISDPSVENVGPVEIFMGILSGIFVSLAYITLRDLREYYDKQAVILAFAFGMSLLGLVGMFIDIPFLSTGIHVPRKEDILWISLIGISGTLGQYFLTYAYMNAPAGIIAPIEYTRIVWGLLFGLYLGDTFLDLKSSLGVALILCSGLLIALPALLKELKKI,failed
12,MRPGSVKRLYGVNTVQYAPCFMRDHRRDGIPHGNLPLELDAFVGRGAQLAELARTLDSARLVTLTGSGGVGKSRLAARAAARRAPRGGVWRVQLAPVRDEEFVDYAVVEALGLTDHTTRLPRETLLAHLAERELLLLLDGVEHLVDACAALVTELLGRAPGLTVLAVGRRPLGVAGERLVPLAPLGTEEAVELLTVRAGQRSVARDHDADPDADQREMRELCRRLDGIPLAIELAAGRLDALSPGQMLRRLDDRFRLLTGGDRTALPRHRTLRTAIGWSHELCTPPERLLWARLSVFAGPFDLEAAEYVCSGDGMPADDVLDVLCALLSQSVLTREESPAGVRYRMLDTVRAYGADWLAATGDADRLRRRHRDWYVGLATWCELEWFSPRQGEVAARVDAELPNLRSALEHCLDEPDGAHLGQYLAGALWFHWVGCGRLSEGRHWLEQAVRLDAEPTAGEQSRLKALWVLAYVAILQGDTVPALAALQECREEAERSANPTAAAYAEHRTGCLALVTDDLPRAETLLRSALHRYREIGELNSNVLMGQVELAMARAFQGDLPDAVRLCEDVRQVCEDHGERWARGYALYVLAYAAWSDGEPVRARELLADCLGSAHRFRDQLGSVLAVELLALVTVAEGDAAEAAVLQGAAGRMWPSVGLPLFGSAHYNAPHELCEAAAREQLGDERYEECVRHGARLGRREAVARALRRPGARASLPAPRPTAVRRAPAGARTAKPAASPTRKGGETAG,failed
13,MRPKANQNHKLKVLLVFLLATLILIFIVRSTLTSSQEHQTPQETRSTRCSGACNKLPRSLAQALIHYSTSVITPQQTLKEIAVSSRVLGKKSPCNFLVFGLGHDSLMWSSLNYGGRTVFLEEDEAWIKQIKRRFPMLESYHVTYDSKVNQADNLIEVGKGPECTAIGDPRYSMCQLALKGLPAEIYETGWDLIMVDAPTGYYDEAPGRMTAIYTAGMMARNRKQGGETDVFVHDVNREIEDKFSKAFLCEGYMKKQEGRLRHFIIPSYRDGSESESNRPFCP,failed
14,MRPLEDDEPTVVGPYRLLGRLGSGGMGRVYLGRSAGGRTVAVKIVHPHFALDEEFRARFRREVAAARRVGGAWTAPVLDADPEARVPWVATAYAAGPSLTAAVADGGPLPAHSVRALGAGLGEALAAVHELGLVHRDVKPSNVLLTLDGPLLIDFGIARATGGTSPTQSGGGTASLTSTGVSIGSPGYMSPEQILGKGVTGAADVFSLGAVLAYATTGQPPFPGDSSAALLYKVVHEEPNLDGLDDGELRELVASCLAKDPSARPAPAEVARRLAPEGAARLVTGGWLPGALVERVSRSAVRLLNLEAGESATGASGPVGFSRPSVTAGGDAGVATPASGVFGPPPVMPAPTSPSYPPSPPAPAPAPSPALLSVPGPRHPGPPDDDPGAGTGTTRPPGRLALSVAATSTQGAQGRGRRISCTVALAVAGALAAVTVGSVFVLDLLPGSGNDANNAGGNEASHDPPAATPGGLPARYLGTWEGQAAALDGKLPLGTFRITIKQAKAGQELGRLRQTDALGGVCVDVITLKKVTEKQLVAGSAGAEGNHDGCNPAPTTVTFTPVGDDLDYASKSEESGRPTARLSKVG,failed
15,MRPSAPNIWIWKVSNLASDPRETVSGEWYAARSNLSSAARLRHGGTLLLVLDAKDNHVITKAEIKAVEISHRVGTIPREIHFPDGSLFETSDNEGVDRLLGLYLPKRAGFVHRLEQFRPRLIGITAAAVLLAYGTYKLALPAVVELAVAMTPPIVPKIMSASTMQALDQTVFSASELPLEEQNAIRVQFSRIAAHAEGSPEDYKLNFRKGGYIGPNAFALPDGTLVLTDELVELAGGDRQMIIGVLAHEIGHVEYEHSLRQLYRAAGVAGLVMLIAGDVGSAMEDILTQGGGLLALSHSRDAERQADQRSVELMRKADLDPTAIERFFALLEEKLGDKGGTSIISTHPGTPQRRKAIIDYNASLDNKPAGNLEHHHHHH,failed
